According to patent US20210355229A1 (JIANGSU HENGRUI MEDICINE, published 2021):

T1: human OX40-FC-biotin (human OX40 recombinant protein with Fc tag, Acro Biosystems OX40-H5255, labeled with … (human, UniProt P43489 29-216, labeled with biotin (site not stated)))
T1 construct: range 29-216; Bought (Acro Biosystems OX40-H5255; printed once as OXO-H5255), expressed in HEK293; also called human Bio-OX40-FC; not shown: Fc tag of the bought protein
T1 sequence (looked up): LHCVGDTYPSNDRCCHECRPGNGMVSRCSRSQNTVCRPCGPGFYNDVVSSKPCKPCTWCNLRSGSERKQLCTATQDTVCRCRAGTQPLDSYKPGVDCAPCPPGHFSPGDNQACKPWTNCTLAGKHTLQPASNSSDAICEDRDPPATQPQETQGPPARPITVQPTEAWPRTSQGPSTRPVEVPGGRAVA


biological target: T1, human OX40-FC-biotin (human OX40 …); test: capture ELISA, biotin-OX40-Fc
Description: 20xPBS buffer was diluted to 1 xwith deionized water. […] 100 μL of the diluted primary antibody was added to each well (the antibody to be tested was 5-fold diluted from the concentration of 10000 ng/ml, resulting in seven gradients, namely 10000 ng/ml, 2000 ng/ml, 400 ng/ml, 80 ng/ml, 16 ng/ml, 3.2 ng/ml, and 0.64 ng/ml, blank wells merely contained dilution solution, i.e., 2.5% skimmed milk in PBST), and incubated at 37° C. for 40 minutes. The plate was washed for 4 times with PBST, human OX40-FC-biotin (Acro biosystem, OXO-H5255, labeled biotin) was diluted with 2.5% skimmed milk in PBST, 100 μl was added to each well, incubated at 37° C. for 40 min, and the plate was washed for 4 times with PB ST. 100 μL TMB developing solution was added to each well, incubated for 3-15 minutes in dark at room temperature, 50 μl stop solution (1M sulfuric acid) was added to each well. The parameters were set for the microplate reader, the OD value was read at 450-630nm, and the test data were saved.

Binder	EC50	binding result
humanized antibody 2G3-hu3 (antibody, human IgG1, V domains shown, hu2G3 VH1 + hu2G3 VL2) VH: QVQLQESGPGLVKPSETLSLTCTVSGYSISRYSVHWVRQPPGKGLEWIGMIWDGGNTDYNSALKSRFTISRDNSKNTLYLQMNSLRAEDTAVYYCARNPLYFSYAMDYWGQGTLVTVSS VL: DIQMTQSPSSLSASVGDRVTITCRASQDISNYLNWYQQKPGKAPKLLIYYTSRLQSGVPSRFSGSGSGTDYTLTISSLQPEDFATYYCQQVNTFPFTFGQGTKLEIK	–	binds
humanized antibody hu4B5-V23 (antibody, human IgG1, V domains shown, hu4B5 VH1 + hu4B5 VL4; human IgG1 / human Kappa constant regions) VH: QVQLQESGPGLVKPSETLSLTCTVSGFSLTSYGLHWIRQPPGKGLEWIGVIWSGGSTDYNAAFISRVTISKEDSKNQFSLKLSSVTAADTAVYYCAREEYDVWGQGTTVTVSS VL: DIQMTQSPSSLSASVGDRVTITCRASQDISNYLNWYQQKPGGTVKLLIYYTSRLHSGVPSRFSGSGSGTDYTLTISSLQPEDVATYFCQQGNTLPWTFGGGTKVEIK	–	binds
humanized antibody hu4B5-V15 (antibody, human IgG1, V domains shown, hu4B5 VH0 + hu4B5 VL2; human IgG1 / human Kappa constant regions) VH: QVQLQESGPGLVKPSETLSLTCTVSGFSLTSYGLHWIRQPPGKGLEWIGVIWSGGSTDYNAAFISRVTISVDTSKNQFSLKLSSVTAADTAVYYCAREEYDVWGQGTTVTVSS VL: DIQMTQSPSSLSASVGDRVTITCRASQDISNYLNWYQQKPGGVPKLLIYYTSRLHSGVPSRFSGSGSGTDYTLTISSLQPEDVATYYCQQGNTLPWTFGGGTKVEIK	–	binds
humanized antibody 2G3-hu5 (antibody, human IgG1, V domains shown, hu2G3 VH1.1 + hu2G3 VL2) VH: QVQLQESGPGLVKPSETLSLTCTVSGYSISRYSVHWVRQPPGKGLEWIGMIWDGGNTDYNAALKSRFTISRDNAKNTLYLQMNSLRAEDTAVYYCARNPLYFSYAMDYWGQGTLVTVSS VL: DIQMTQSPSSLSASVGDRVTITCRASQDISNYLNWYQQKPGKAPKLLIYYTSRLQSGVPSRFSGSGSGTDYTLTISSLQPEDFATYYCQQVNTFPFTFGQGTKLEIK	–	binds
humanized antibody hu4B5-V8 (antibody, human IgG1, V domains shown, hu4B5 VH1 + hu4B5 VL1; human IgG1 / human Kappa constant regions) VH: QVQLQESGPGLVKPSETLSLTCTVSGFSLTSYGLHWIRQPPGKGLEWIGVIWSGGSTDYNAAFISRVTISKEDSKNQFSLKLSSVTAADTAVYYCAREEYDVWGQGTTVTVSS VL: DIQMTQSPSSLSASVGDRVTITCRASQDISNYLNWYQQKPGKVPKLLIYYTSRLHSGVPSRFSGSGSGTDYTLTISSLQPEDVATYYCQQGNTLPWTFGGGTKVEIK	–	binds
humanized antibody hu4B5-V16 (antibody, human IgG1, V domains shown, hu4B5 VH1 + hu4B5 VL2; human IgG1 / human Kappa constant regions) VH: QVQLQESGPGLVKPSETLSLTCTVSGFSLTSYGLHWIRQPPGKGLEWIGVIWSGGSTDYNAAFISRVTISKEDSKNQFSLKLSSVTAADTAVYYCAREEYDVWGQGTTVTVSS VL: DIQMTQSPSSLSASVGDRVTITCRASQDISNYLNWYQQKPGGVPKLLIYYTSRLHSGVPSRFSGSGSGTDYTLTISSLQPEDVATYYCQQGNTLPWTFGGGTKVEIK	–	binds
humanized antibody hu4B5-V22 (antibody, human IgG1, V domains shown, hu4B5 VH0 + hu4B5 VL4; human IgG1 / human Kappa constant regions) VH: QVQLQESGPGLVKPSETLSLTCTVSGFSLTSYGLHWIRQPPGKGLEWIGVIWSGGSTDYNAAFISRVTISVDTSKNQFSLKLSSVTAADTAVYYCAREEYDVWGQGTTVTVSS VL: DIQMTQSPSSLSASVGDRVTITCRASQDISNYLNWYQQKPGGTVKLLIYYTSRLHSGVPSRFSGSGSGTDYTLTISSLQPEDVATYFCQQGNTLPWTFGGGTKVEIK	–	binds
humanized antibody hu4B5-V2 (antibody, human IgG1, V domains shown, hu4B5 VH1 + hu4B5 VL0; human IgG1 / human Kappa constant regions) VH: QVQLQESGPGLVKPSETLSLTCTVSGFSLTSYGLHWIRQPPGKGLEWIGVIWSGGSTDYNAAFISRVTISKEDSKNQFSLKLSSVTAADTAVYYCAREEYDVWGQGTTVTVSS VL: DIQMTQSPSSLSASVGDRVTITCRASQDISNYLNWYQQKPGKVPKLLIYYTSRLHSGVPSRFSGSGSGTDFTLTISSLQPEDVATYYCQQGNTLPWTFGGGTKVEIK	–	binds

Continued, values first:

EC50	binding result	Binder
0.59 µg/mL	–	humanized antibody hu4B5-V1 (antibody, human IgG1, V domains shown, hu4B5 VH0 + hu4B5 VL0) VH: QVQLQESGPGLVKPSETLSLTCTVSGFSLTSYGLHWIRQPPGKGLEWIGVIWSGGSTDYNAAFISRVTISVDTSKNQFSLKLSSVTAADTAVYYCAREEYDVWGQGTTVTVSS VL: DIQMTQSPSSLSASVGDRVTITCRASQDISNYLNWYQQKPGKVPKLLIYYTSRLHSGVPSRFSGSGSGTDFTLTISSLQPEDVATYYCQQGNTLPWTFGGGTKVEIK
0.536 µg/mL	–	humanized antibody hu4B5-V14 (antibody, human IgG1, V domains shown, hu4B5 VH4 + hu4B5 VL4; human IgG1 / human Kappa constant regions) VH: QVQLKESGPGLVKPSETLSLTCTVSGFSLTSYGLHWFRQPPGKGLEWLGVIWSGGSTDYNAAFISRLTISKEDSKSQVSLKLSSVTAADTAVYYCAREEYDVWGQGTTVTVSS VL: DIQMTQSPSSLSASVGDRVTITCRASQDISNYLNWYQQKPGGTVKLLIYYTSRLHSGVPSRFSGSGSGTDYTLTISSLQPEDVATYFCQQGNTLPWTFGGGTKVEIK
0.76 µg/mL	–	humanized antibody hu4B5-V10 (antibody, human IgG1, V domains shown, hu4B5 VH3 + hu4B5 VL1; human IgG1 / human Kappa constant regions) VH: QVQLKESGPGLVKPSETLSLTCTVSGFSLTSYGLHWFRQPPGKGLEWIGVIWSGGSTDYNAAFISRVTISKEDSKSQVSLKLSSVTAADTAVYYCAREEYDVWGQGTTVTVSS VL: DIQMTQSPSSLSASVGDRVTITCRASQDISNYLNWYQQKPGKVPKLLIYYTSRLHSGVPSRFSGSGSGTDYTLTISSLQPEDVATYYCQQGNTLPWTFGGGTKVEIK
–	binds	humanized antibody hu4B5-V4 (antibody, human IgG1, V domains shown, hu4B5 VH3 + hu4B5 VL0; human IgG1 / human Kappa constant regions) VH: QVQLKESGPGLVKPSETLSLTCTVSGFSLTSYGLHWFRQPPGKGLEWIGVIWSGGSTDYNAAFISRVTISKEDSKSQVSLKLSSVTAADTAVYYCAREEYDVWGQGTTVTVSS VL: DIQMTQSPSSLSASVGDRVTITCRASQDISNYLNWYQQKPGKVPKLLIYYTSRLHSGVPSRFSGSGSGTDFTLTISSLQPEDVATYYCQQGNTLPWTFGGGTKVEIK
–	binds	humanized antibody hu4B5-V21 (antibody, human IgG1, V domains shown, hu4B5 VH3 + hu4B5 VL3; human IgG1 / human Kappa constant regions) VH: QVQLKESGPGLVKPSETLSLTCTVSGFSLTSYGLHWFRQPPGKGLEWIGVIWSGGSTDYNAAFISRVTISKEDSKSQVSLKLSSVTAADTAVYYCAREEYDVWGQGTTVTVSS VL: DIQMTQSPSSLSASVGDRVTITCRASQDISNYLNWYQQKPGGVPKLLIYYTSRLHSGVPSRFSGSGSGTDYTLTISSLQQEDVATYYCQQGNTLPWTFGGGTKVEIK
–	binds	humanized antibody hu4B5-V18 (antibody, human IgG1, V domains shown, hu4B5 VH0 + hu4B5 VL3; human IgG1 / human Kappa constant regions) VH: QVQLQESGPGLVKPSETLSLTCTVSGFSLTSYGLHWIRQPPGKGLEWIGVIWSGGSTDYNAAFISRVTISVDTSKNQFSLKLSSVTAADTAVYYCAREEYDVWGQGTTVTVSS VL: DIQMTQSPSSLSASVGDRVTITCRASQDISNYLNWYQQKPGGVPKLLIYYTSRLHSGVPSRFSGSGSGTDYTLTISSLQQEDVATYYCQQGNTLPWTFGGGTKVEIK
–	binds	humanized antibody hu4B5-V6 (antibody, human IgG1, V domains shown, hu4B5 VH0 + hu4B5 VL1; human IgG1 / human Kappa constant regions) VH: QVQLQESGPGLVKPSETLSLTCTVSGFSLTSYGLHWIRQPPGKGLEWIGVIWSGGSTDYNAAFISRVTISVDTSKNQFSLKLSSVTAADTAVYYCAREEYDVWGQGTTVTVSS VL: DIQMTQSPSSLSASVGDRVTITCRASQDISNYLNWYQQKPGKVPKLLIYYTSRLHSGVPSRFSGSGSGTDYTLTISSLQPEDVATYYCQQGNTLPWTFGGGTKVEIK
0.886 µg/mL	–	humanized antibody 2G3-hu1 (antibody, human IgG1, V domains shown, hu2G3 VH1 + hu2G3 VL1) VH: QVQLQESGPGLVKPSETLSLTCTVSGYSISRYSVHWVRQPPGKGLEWIGMIWDGGNTDYNSALKSRFTISRDNSKNTLYLQMNSLRAEDTAVYYCARNPLYFSYAMDYWGQGTLVTVSS VL: DIQMTQSPSSLSASVGDRVTITCRASQDISNYLNWYQQKPDQSPKLLIIYTSRLQSGVPSRFSGSGSGTDYTLTISSLQPEDFATYYCQQVNTFPFTFGQGTKLEIK
0.743 µg/mL	–	humanized antibody 2G3-hu7 (antibody, human IgG1, V domains shown, hu2G3 VH1.2 + hu2G3 VL2) VH: QVQLQESGPGLVKPSQTLSLTCTVSGFSLSRYSVHWVRQPPGKGLEWIGMIWDGGNTDYAAPVKGRFTISRDDSKNTLYLQMNSLKTEDTAVYYCARNPLYFSYAMDYWGQGTLVTVSS VL: DIQMTQSPSSLSASVGDRVTITCRASQDISNYLNWYQQKPGKAPKLLIYYTSRLQSGVPSRFSGSGSGTDYTLTISSLQPEDFATYYCQQVNTFPFTFGQGTKLEIK
–	binds	humanized antibody hu4B5-V25 (antibody, human IgG1, V domains shown, hu4B5 VH3 + hu4B5 VL4; human IgG1 / human Kappa constant regions) VH: QVQLKESGPGLVKPSETLSLTCTVSGFSLTSYGLHWFRQPPGKGLEWIGVIWSGGSTDYNAAFISRVTISKEDSKSQVSLKLSSVTAADTAVYYCAREEYDVWGQGTTVTVSS VL: DIQMTQSPSSLSASVGDRVTITCRASQDISNYLNWYQQKPGGTVKLLIYYTSRLHSGVPSRFSGSGSGTDYTLTISSLQPEDVATYFCQQGNTLPWTFGGGTKVEIK
–	binds	humanized antibody hu4B5-V19 (antibody, human IgG1, V domains shown, hu4B5 VH1 + hu4B5 VL3; human IgG1 / human Kappa constant regions) VH: QVQLQESGPGLVKPSETLSLTCTVSGFSLTSYGLHWIRQPPGKGLEWIGVIWSGGSTDYNAAFISRVTISKEDSKNQFSLKLSSVTAADTAVYYCAREEYDVWGQGTTVTVSS VL: DIQMTQSPSSLSASVGDRVTITCRASQDISNYLNWYQQKPGGVPKLLIYYTSRLHSGVPSRFSGSGSGTDYTLTISSLQQEDVATYYCQQGNTLPWTFGGGTKVEIK
